Data from the supplement of paper PMC5998384.

Columns and labels:
HeLa Kyoto [1] = assay: solubility change mitosis vs G1/S (difference of NP-40 vs SDS log2 ratios) (log2 ratio difference); higher = more soluble in mitosis
HeLa Kyoto [2] = assay: solubility in G1/S (NP-40 vs SDS abundance) (log2 ratio); higher = more soluble; conditions: cell cycle stage: G1/S
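Throughout, for solubility change mitosis vs G1/S (difference of NP-40 vs SDS log2 ratios): synchronized HeLa Kyoto cells (double thymidine block for G1/S, nocodazole release for mitosis), protein amounts in NP-40 versus SDS lysates quantified by mass spectrometry, three biological replicates.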
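Throughout, for solubility in G1/S (NP-40 vs SDS abundance): HeLa Kyoto cells arrested at G1/S by double thymidine block, proteins quantified by TMT10plex mass spectrometry in mild NP-40 versus SDS extracts, three biological replicates.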

Row | Sequence | solubility change mitosis (log2) (HeLa Kyoto [1]) | solubility in G1/S (log2) (HeLa Kyoto [2])
1 | MSENNKNSLESSLRQLKCHFTWNLMEGENSLDDFEDKVFYRTEFQNREFKATMCNLLAYLKHLKGQNEAALECLRKAEELIQQEHADQAEIRSLVTWGNYAWVYYHMGRLSDVQIYVDKVKHVCEKFSSPYRIESPELDCEEGWTRLKCGGNQNERAKVCFEKALEKKPKNPEFTSGLAIASYRLDNWPPSQNAIDPLRQAIRLNPDNQYLKVLLALKLHKMREEGEEEGEGEKLVEEALEKAPGVTDVLRSAAKFYRRKDEPDKAIELLKKALEYIPNNAYLHCQIGCCYRAKVFQVMNLRENGMYGKRKLLELIGHAVAHLKKADEANDNLFRVCSILASLHALADQYEDAEYYFQKEFSKELTPVAKQLLHLRYGNFQLYQMKCEDKAIHHFIEGVKINQKSREKEKMKDKLQKIAKMRLSKNGADSEALHVLAFLQELNEKMQQADEDSERGLESGSLIPSASSWNGE [IFIT2] | -0.2 | 0.432
2 | MSETDHIASTSSDKNVGKTPELKEDSCNLFSGNESSKLENESKLLSLNTDKTLCQPNEHNNRIEAQENYIPDHGGGEDSCAKTDTGSENSEQIANFPSGNFAKHISKTNETEQKVTQILVELRSSTFPESANEKTYSESPYDTDCTKKFISKIKSVSASEDLLEEIESELLSTEFAEHRVPNGMNKGEHALVLFEKCVQDKYLQQEHIIKKLIKENKKHQELFVDICSEKDNLREELKKRTETEKQHMNTIKQLESRIEELNKEVKASRDQLIAQDVTAKNAVQQLHKEMAQRMEQANKKCEEARQEKEAMVMKYVRGEKESLDLRKEKETLEKKLRDANKELEKNTNKIKQLSQEKGRLHQLYETKEGETTRLIREIDKLKEDINSHVIKVKWAQNKLKAEMDSHKETKDKLKETTTKLTQAKEEADQIRKNCQDMIKTYQESEEIKSNELDAKLRVTKGELEKQMQEKSDQLEMHHAKIKELEDLKRTFKEGMDELRTLRTKVKCLEDERLRTEDELSKYKEIINRQKAEIQNLLDKVKTADQLQEQLQRGKQEIENLKEEVESLNSLINDLQKDIEGSRKRESELLLFTERLTSKNAQLQSESNSLQSQFDKVSCSESQLQSQCEQMKQTNINLESRLLKEEELRKEEVQTLQAELACRQTEVKALSTQVEELKDELVTQRRKHASSIKDLTKQLQQARRKLDQVESGSYDKEVSSMGSRSSSSGSLNARSSAEDRSPENTGSSVAVDNFPQVDKAMLIERIVRLQKAHARKNEKIEFMEDHIKQLVEEIRKKTKIIQSYILREESGTLSSEASDFNKVHLSRRGGIMASLYTSHPADNGLTLELSLEINRKLQAVLEDTLLKNITLKENLQTLGTEIERLIKHQHELEQRTKKT [CCDC186] | 0.000436 | 0.232
3 | MSEVLPADSGVDTLAVFMASSGTTDVTNRNSPATPPNTLNLRSSHNELLNAEIKHTETKNSTPPKCRKKYALTNIQAAMGLSDPAAQPLLGNGSANIKLVKNGENQLRKAAEQGQQDPNKNLSPTAVINITSEKLEGKEPHPQDSSSCEILPSQPRRTKSFLNYYADLETSARELEQNRGNHHGTAEEKSQPVQGQASTIIGNGDLLLQKPNRPQSSPEDGQVATVSSSPETKKDHPKTGAKTDCALHRIQNLAPSDEESSWTTLSQDSASPSSPDETDIWSDHSFQTDPDLPPGWKRVSDIAGTYYWHIPTGTTQWERPVSIPADLQGSRKGSLSSVTPSPTPENEKQPWSDFAVLNGGKINSDIWKDLHAATVNPDPSLKEFEGATLRYASLKLRNAPHPDDDDSCSINSDPEAKCFAVRSLGWVEMAEEDLAPGKSSVAVNNCIRQLSYCKNDIRDTVGIWGEGKDMYLILENDMLSLVDPMDRSVLHSQPIVSIRVWGVGRDNGRDFAYVARDKDTRILKCHVFRCDTPAKAIATSLHEICSKIMAERKNAKALACSSLQERANVNLDVPLQVDFPTPKTELVQKFHVQYLGMLPVDKPVGMDILNSAIENLMTSSNKEDWLSVNMNVADATVTVISEKNEEEVLVECRVRFLSFMGVGKDVHTFAFIMDTGNQRFECHVFWCEPNAGNVSEAVQAACMLRYQKCLVARPPSQKVRPPPPPADSVTRRVTTNVKRGVLSLIDTLKQKRPVTEMP [APBB2] | -0.0698 | 0.0839
4 | MSFLIDSSIMITSQILFFGFGWLFFMRQLFKDYEIRQYVVQVIFSVTFAFSCTMFELIIFEILGVLNSSSRYFHWKMNLCVILLILVFMVPFYIGYFIVSNIRLLHKQRLLFSCLLWLTFMYFFWKLGDPFPILSPKHGILSIEQLISRVGVIGVTLMALLSGFGAVNCPYTYMSYFLRNVTDTDILALERRLLQTMDMIISKKKRMAMARRTMFQKGEVHNKPSGFWGMIKSVTTSASGSENLTLIQQEVDALEELSRQLFLETADLYATKERIEYSKTFKGKYFNFLGYFFSIYCVWKIFMATINIVFDRVGKTDPVTRGIEITVNYLGIQFDVKFWSQHISFILVGIIIVTSIRGLLITLTKFFYAISSSKSSNVIVLLLAQIMGMYFVSSVLLIRMSMPLEYRTIITEVLGELQFNFYHRWFDVIFLVSALSSILFLYLAHKQAPEKQMAP [GPR89B] | -0.167 | -0.0559
5 | MSHGPKQPGAAAAPAGGKAPGQHGGFVVTVKQERGEGPRAGEKGSHEEEPVKKRGWPKGKKRKKILPNGPKAPVTGYVRFLNERREQIRTRHPDLPFPEITKMLGAEWSKLQPTEKQRYLDEAEREKQQYMKELRAYQQSEAYKMCTEKIQEKKIKKEDSSSGLMNTLLNGHKGGDCDGFSTFDVPIFTEEFLDQNKAREAELRRLRKMNVAFEEQNAVLQRHTQSMSSARERLEQELALEERRTLALQQQLQAVRQALTASFASLPVPGTGETPTLGTLDFYMARLHGAIERDPAQHEKLIVRIKEILAQVASEHL [HMG20B] | -0.0403 | 0.616
6 | MSKGRAEAAAGAAGILLRYLQEQNRPYSSQDVFGNLQREHGLGKAVVVKTLEQLAQQGKIKEKMYGKQKIYFADQDQFDMVSDADLQVLDGKIVALTAKVQSLQQSCRYMEAELKELSSALTTPEMQKEIQELKKECAGYRERLKNIKAATNHVTPEEKEQVYRERQKYCKEWRKRKRMATELSDAILEGYPKSKKQFFEEVGIETDEDYNVTLPDP [PSMC3IP] | 0.072 | 0.125
7 | MSKTFLRPKVSSTKVTDWVDPSFDDFLECSGVSTITATSLGVNNSSHRRKNGPSTLESSRFPARKRGNLSSLEQIYGLENSKEYLSENEPWVDKYKPETQHELAVHKKKIEEVETWLKAQVLERQPKQGGSILLITGPPGCGKTTTLKILSKEHGIQVQEWINPVLPDFQKDDFKGMFNTESSFHMFPYQSQIAVFKEFLLRATKYNKLQMLGDDLRTDKKIILVEDLPNQFYRDSHTLHEVLRKYVRIGRCPLIFIISDSLSGDNNQRLLFPKEIQEECSISNISFNPVAPTIMMKFLNRIVTIEANKNGGKITVPDKTSLELLCQGCSGDIRSAINSLQFSSSKGENNLRPRKKGMSLKSDAVLSKSKRRKKPDRVFENQEVQAIGGKDVSLFLFRALGKILYCKRASLTELDSPRLPSHLSEYERDTLLVEPEEVVEMSHMPGDLFNLYLHQNYIDFFMEIDDIVRASEFLSFADILSGDWNTRSLLREYSTSIATRGVMHSNKARGYAHCQGGGSSFRPLHKPQWFLINKKYRENCLAAKALFPDFCLPALCLQTQLLPYLALLTIPMRNQAQISFIQDIGRLPLKRHFGRLKMEALTDREHGMIDPDSGDEAQLNGGHSAEESLGEPTQATVPETWSLPLSQNSASELPASQPQPFSAQGDMEENIIIEDYESDGT [RAD17] | 0.000111 | -0.0641
8 | MSLERELRQLSKAKAKAQRAGQRREEAALCHQLGELLAGHGRYAEALEQHWQELQLRERADDPLGCAVAHRKIGERLAEMEDYPAALQHQHQYLELAHSLRNHTELQRAWATIGRTHLDIYDHCQSRDALLQAQAAFEKSLAIVDEELEGTLAQGELNEMRTRLYLNLGLTFESLQQTALCNDYFRKSIFLAEQNHLYEDLFRARYNLGTIHWRAGQHSQAMRCLEGARECAHTMRKRFMESECCVVIAQVLQDLGDFLAAKRALKKAYRLGSQKPVQRAAICQNLQHVLAVVRLQQQLEEAEGRDPQGAMVICEQLGDLFSKAGDFPRAAEAYQKQLRFAELLDRPGAERAIIHVSLATTLGDMKDHHGAVRHYEEELRLRSGNVLEEAKTWLNIALSREEAGDAYELLAPCFQKALSCAQQAQRPQLQRQVLQHLHTVQLRLQPQEAPETETRLRELSVAEDEDEEEEAEEAAATAESEALEAGEVELSEGEDDTDGLTPQLEEDEELQGHLGRRKGSKWNRRNDMGETLLHRACIEGQLRRVQDLVRQGHPLNPRDYCGWTPLHEACNYGHLEIVRFLLDHGAAVDDPGGQGCEGITPLHDALNCGHFEVAELLLERGASVTLRTRKGLSPLETLQQWVKLYRRDLDLETRQKARAMEMLLQAAASGQDPHSSQAFHTPSSLLFDPETSPPLSPCPEPPSNSTRLPEASQAHVRVSPGQAAPAMARPRRSRHGPASSSSSSEGEDSAGPARPSQKRPRCSATAQRVAAWTPGPASNREAATASTSRAAYQAAIRGVGSAQSRLGPGPPRGHSKALAPQAALIPEEECLAGDWLELDMPLTRSRRPRPRGTGDNRRPSSTSGSDSEESRPRARAKQVRLTCMQSCSAPVNAGPSSLASEPPGSPSTPRVSEPSGDSSAAGQPLGPAPPPPIRVRVQVQDHLFLIPVPHSSDTHSVAWLAEQAAQRYYQTCGLLPRLTLRKEGALLAPQDLIPDVLQSNDEVLAEVTSWDLPPLTDRYRRACQSLGQGEHQQVLQAVELQGLGLSFSACSLALDQAQLTPLLRALKLHTALRELRLAGNRLGDKCVAELVAALGTMPSLALLDLSSNHLGPEGLRQLAMGLPGQATLQSLEELDLSMNPLGDGCGQSLASLLHACPLLSTLRLQACGFGPSFFLSHQTALGSAFQDAEHLKTLSLSYNALGAPALARTLQSLPAGTLLHLELSSVAAGKGDSDLMEPVFRYLAKEGCALAHLTLSANHLGDKAVRDLCRCLSLCPSLISLDLSANPEISCASLEELLSTLQKRPQGLSFLGLSGCAVQGPLGLGLWDKIAAQLRELQLCSRRLCAEDRDALRQLQPSRPGPGECTLDHGSKLFFRRL [TONSL] | 0.119 | -0.116
9 | MSQKQEEENPAEETGEEKQDTQEKEGILPERAEEAKLKAKYPSLGQKPGGSDFLMKRLQKGQKYFDSGDYNMAKAKMKNKQLPSAGPDKNLVTGDHIPTPQDLPQRKSSLVTSKLAGGQVE [ENSA] | 0.654 | -0.789
10 | MSRQAKDDFLRHYTVSDPRTHPKGYTEYKVTAQFISKKDPEDVKEVVVWKRYSDFRKLHGDLAYTHRNLFRRLEEFPAFPRAQVFGRFEASVIEERRKGAEDLLRFTVHIPALNNSPQLKEFFRGGEVTRPLEVSRDLHILPPPLIPTPPPDDPRLSQLLPAERRGLEELEVPVDPPPSSPAQEALDLLFNCESTEEASGSPARGPLTEAELALFDPFSKEEGAAPSPTHVAELATMEVESARLDQEPWEPGGQEEEEDGEGGPTPAYLSQATELITQALRDEKAGAYAAALQGYRDGVHVLLQGVPSDPLPARQEGVKKKAAEYLKRAEEILRLHLSQLPP [SNX15] | -0.104 | 0.365
11 | MSRRRFDCRSISGLLTTTPQIPIKMENFNNFYILTSKELGRGKFAVVRQCISKSTGQEYAAKFLKKRRRGQDCRAEILHEIAVLELAKSCPRVINLHEVYENTSEIILILEYAAGGEIFSLCLPELAEMVSENDVIRLIKQILEGVYYLHQNNIVHLDLKPQNILLSSIYPLGDIKIVDFGMSRKIGHACELREIMGTPEYLAPEILNYDPITTATDMWNIGIIAYMLLTHTSPFVGEDNQETYLNISQVNVDYSEETFSSVSQLATDFIQSLLVKNPEKRPTAEICLSHSWLQQWDFENLFHPEETSSSSQTQDHSVRSSEDKTSKSSCNGTCGDREDKENIPEDSSMVSKRFRFDDSLPNPHELVSDLLC [STK17B] | -0.161 | 0.0558
